Measurements from US20150239929A1 (PORTOLA PHARMACEUTICALS, published 2015).

B1: r-Antidote (fXa derivative, cleaved two-chain polypeptide of SEQ ID NO: 2) (enzyme)
light: ANSFLFWNKYKDGDQCETSPCQNQGKCKDGLGEYTCTCLEGFEGKNCELFTRKLCSLDNGDCDQFCHEEQNSVVCSCARGYTLADNGKACIPTGPYPCGKQTLER
heavy: IVGGQECKDGECPWQALLINEENEGFCGGTILSEFYILTAAHCLYQAKRFKVRVGDRNTEQEEGGEAVHEVEVVIKHNRFTKETYDFDIAVLRLKTPITFRMNVAPACLPERDWAESTLMTQKTGIVSGFGRTHEKGRQSTRLKMLEVPYVDRNSCKLSSSFIITQNMFCAGYDTKQEDACQGDAGGPHVTRFKDTYFVTGIVSWGEGCARKGKYGIYTKVTAFLKWIDRSMKTRGLPKAKSHAPEVITSSPLK
notes: Made in CHO cells; the two chains are linked by a disulfide bond; also called target protein; functional protein

Experiments:
[1] = biological target: B1; experiment: affinity column loading of purified r-Antidote, 1 mL resin, 20 mM Tris/150 mM NaCl pH 7.4
[2] = biological target: Aprotinin, immobilised on agarose (Aprotinin-Agarose, catalog #A2268) (UniProt P00974 36-93); experiment: affinity column loading, 1 mL resin, 20 mM Tris/150 mM NaCl pH 7.4
Protocol: Commercially available affinity resins were screened for their efficacy in purifying r-Antidote. Various affinity resins were packed into a column (such as a Tricorn column, GE) with 1 mL of resin. Following sanitization according to manufacturer's recommendations, the column was equilibrated with 20 mM Tris/150 mM NaCl at pH 7.4, followed by testing their ability to bind r-Antidote in the same buffer. r-Antidote at a concentration of 0.145 mg/mL in PBS (Phosphate Buffered Saline), was loaded onto the column at a flow rate of 1 mL/min by injection (1 mL).

Row | Binder | binding result [1] | binding result [2]
1 | Soybean Trypsin Inhibitor (STI), immobilised on affinity resin (other, Glycine max (soybean), UniProt P01070 25-205, looked up, also called STI-Agarose) DFVLDNEGNPLENGGTYYILSDITAFGGIRAAPTGNERCPLTVVQSRNELDKGIGTIISSPYRIRFIAEGHPLSLKFDSFAVIMLCVGIPTEWSVVEDLPEGPAVKIGENKDAMDGWFRLERVSDDEFNNYKLVFCPQQAEDDKCGDIGISIDHDDGTRRLVVSKNKPLVVQFQKLDKESL | binds | 
2 | B1 |  | no binding (tested: 0.145 mg/mL (1 mL injected))
